Data as given in patent US20230212319A1, “NOVEL ANTIGEN BINDING DOMAINS AND SYNTHETIC ANTIGEN RECEPTORS INCORPORATING THE SAME” (University of Southern California, priority 2020, published 2023).

Legend:
LNCaP cells = test: JNG assay, co-culture with LNCaP cells; assay type: cell-based; conditions: LNCaP cells, only in the presence of SAR-adaptor PSMA-USC76-chVH-G4S-ULBP2-S3 (SEQ ID NO: 23114)
Method: Cellular supernatant is collected and assayed for the induction of cytokines (e.g., IL2).
JNG (Jurkat cells expressing EGFP under an NFAT promoter) were infected with lentiviral vectors encoding different single chain and multi-chain SARs by spinfection in the presence of 8 µg/ml of Polybrene® (Sigma, Catalog no. H9268). The Jurkat-NFAT-GFP cells are engineered in such a way that the IL-2 promoter, which carries NFAT binding sites, is cloned upstream of the GFP gene. These cells have been used to study signaling via TCR and CAR. The different SARs were stably expressed in Jurkat NFAT-GFP cells by lentiviral mediated gene transfer, followed by selection with puromycin or blasticidin. No drug selection was used in case the construct lacked an antibiotic resistance gene. The SAR-expressing Jurkat-NFAT-GFP cells were cocultured with the target cells at E:T ratio of approximately 1:2 for approximately 4 hours to 18 hours. When the interaction between SIRs and their target antigen results in activation of the NFAT pathway, GFP expression is induced. […] GFP expression was monitored by FACS analysis. The Jurkat-NFAT-GFP (parental) cells were used as control. The structure of different constructs can be determined based on their names. For example, the construct CD8SP-CD19-hu-mROO5-1-vL-[hTCRa-C SDVP]-F-F2A-Spe-IgHSP-Apa-CD20-vHH-2HCD25-G4S-CDl9-hu-mROO5-1-vH-Mlu-[hTCRb-KACIAH]-F-P2A-PAC has the following modules from 5′ to 3′ direction: a CD8 signal peptide (CD8SP), the CD19 targeting hu-mROO5-1 vL fragment (CD19-hu-mROO5-1), Xho1 cloning site, human TCRa constant chain containing CSDVP mutations (hTCRa-CSDVP), Furine cleavage site (F), F2A ribosomal skip sequence (F2A), SpeI site, human IgH signal peptide (IgHSP), Apa I restriction enzyme site, camelid CD20-2HCD25-VHH module targeting CD20, BamHI restriction enzyme site, Glycinex4-serine linker (G4S), BstI restriction enzyme site, CD19-hu-mROO5-1-vH fragment targeting CD19, Mlu I restriction enzyme site, human TCRb constant chain containing KACIAH mutations ([hTCRb-KACIAH]), Furine cleavage site (F), P2A ribosomal skip sequence and Puromycin resistance gene (PAC). The sequence of the other constructs in the table can be similarly determined from their names and by referring to the different Tables of this disclosure that provide the names and SEQ ID NO of the different modules. Alternatively, the composition and modular architecture of the different SAR constructs can be determined from their sequences by bioinformatics tools, including using nucleic acid and amino acids homology searches. A SAR is considered positive in the assay in case the SAR expressing Jurkat-NFAT-GFP cells show greater % GFP positive cells when cultured with the target cell line as compared to parental Jurkat-NFAT-GFP cells. The signs +/-, +, 2+ etc. after the name of the cell lines indicate the relative degree of positivity on the Jurkat-NFAT-GFP assay as measured by the % GFP positive cells after culture of the SAR expressing Jurkat-NFAT-GFP cells with that cell line above the % GFP cells observed in parental Jurkat NFAT-GFP cells serving as controls. In general, the number +/-, +, 2+, 3+, 4+, 5+ refer to approximately 5%, 10%, 20%, 30%, 40% and 50% GFP positive cells. The % of GFP induction in the above assay is dependent not only the relative strength of the SAR but also, among other factors, on the relative level of expression of the SAR in the JNG cells and the relative level of expression of the target antigen in the target cell line. To control for the difference in gene transduction efficiency of the different SAR constructs, the experiment was conducted with JNG cells transduced with SAR constructs co-expressing a drug resistance gene (e.g., puromycin or PAC) followed by drug selection to generate a stable population of SAR-expressing cells. […]

RAJI cells = test: JNG assay, co-culture with RAJI cells; assay type: cell-based; conditions: co-culture with RAJI cells
Method in brief: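 Read-out is NFAT-driven GFP measured by flow cytometry after ~4–18 h co-culture of SAR-expressing JNG cells with target cells (E:T about 1:2). SARs were introduced by lentiviral spinfection and selected with puromycin or blasticidin when possible; scores (+/- to 5+ ≈ 5–50% GFP+) are relative to parental JNG cells.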

B1: SEQ ID NO: 22287: NKG2D-YA-G4Sx3-NKG2D-YA domain attached to the hu-mROO5-1 vH fragment of an Ab-TCR via a G4S linker (protein)
chain: MALPVTALLLPLALLLHAARPACEVQLLESGGGLIQPGGSLRLSCAASGFTFSSHAMTWVRQAPGKGLEWVSAISGSGDYTHYADSVKGRFTISRDNSKNTVYLQMNSLRAEDSAVYYCAKDEDGGSLLGHRGQGTLVTVSSGTGGGGSGGGGSGGGGSEFDIQMTQSPSSLSASVGDRVTITCKASDHINNWLAWYQQKPGQAPKLLIYGATTLETGVPSRFSGSGSGTDYTLTISSLQPEDFATYYCQQSWNTPWTFGQGTKLEIKRLEGQPKANPTVTLFPPSSEELQANKATLVCLISDFYPGAVTVAWKADGSPVKAGVETTKPSKQSNNKYAASSYLSLTPEQWKSHRSYSCQVTHEGSTVEKTVAPTECSGRADCGFTSESYQQGVLSATILYEILLGKATLYAVLVSALVLMAMVKRKDSRGRAKRSGSGATNFSLLKQAGDVEENPGPTSTMDWIWRILFLVGAATGAHSLFNQEVQIPLTESYCGPCPKNWICYKNNCYQFFDESKNWYESQASCMSQNASLLKVYSKEDQDLLKLVKSAHWMGLVHIPTNGSWQWEDGSILSPNLLTIIEMQKGDCALYASSFKGYIENCSTPNTYICMQRTVSGGGGSGGGGSGGGGDLFNQEVQIPLTESYCGPCPKNWICYKNNCYQFFDESKNWYESQASCMSQNASLLKVYSKEDQDLLKLVKSAHWMGLVHIPTNGSWQWEDGSILSPNLLTIIEMQKGDCALYASSFKGYIENCSTPNTYICMQRTVGSGGGGSGGGGSGGGGSFEQVQLQQPGAELVKPGASVKMSCKASGYAFSSYWINWMKQKPGQGLEWIGQIYPGDGDTNYNGKFKGRATLTADTSSSTAYMQLSSLTSEDSAVYFCARSITTVVGCAMDYWGQGTSVTVSSTRASTKGPSVFPLAPSSKSTSGGTAALGCLVKDYFPEPVTVSWNSGALTSGVHTFPAVLQSSGLYSLSSVVTVPSSSLGTQTYICNVNHKPSNTKVDKRVEPKSCIPEDTFFPSPESSCDVKLVEKSFETDTNLNFQNLSVIGFRILLLKVAGFNLLMTLRLWSSRAKRSGSGVKQTLNFDLLKLAGDVESNPGPSRGHMTEYKPTVRLATRDDVPRAVRTLAAAFADYPATRHTVDPDRHIERVTELQELFLTRVGLDIGKVWVADDGAAVAVWTTPESVEAGAVFAEIGPRMAELSGSRLAAQQQMEGLLAPHRPKEPAWFLATVGVSPDHQGKGLGSAVVLPGVEAAERAGVPAFLETSAPRNLPFYERLGFTVTADVEVPEGPRTWCMTRKPGA
- GFP induction (LNCaP cells): induction of GFP
- GFP induction / activity (RAJI cells): robust induction of GFP
